The text below walks through data of paper PMC11724247.

Test [1] deals with recombinant cynomolgus FcεRIα (cynomolgus monkey (Macaca fascicularis)). The experiment in a line: SPR. On the technique in general: SPR reads the build-up and loss of mass on a sensor chip optically.
The target of test [2] is recombinant human FcεRIα (human) (UniProt P12319). Kind of test: SPR.

A word on the Kd: it is the equilibrium constant for the complex coming apart. As for “recombinant cynomolgus IgE Fc (Cε1-4) (domain or fragment)”, the Kd stood at 1.4 nM in test [1] and 0.00673 nM in test [2].

As for recombinant human IgE (antibody), the Kd in test [1] is 1 nM; in test [2], 0.00839 nM.
